Test results published in patent US20230121197A1, “ANTIBODIES SPECIFICALLY BINDING THE CARBOXYMETHYLATED CATALYTIC SUBUNIT OF PROTEIN PHOSPHATASE 2A” (Medizinische Universität Wien, priority 2020, published 2023).

B1: 7C10-C5 monoclonal antibody (antibody, V domains shown)
VH: DVQLQESGPGLVKPSQSLSLTCSVTGYSITSGYYWNWIRQFPGNKLEWMGYISYDGSNNYNPSLKNRISITRDTSKNQFFLKLNSVTTEDTATYYCAGRFAYWGQGTLVTVSA
VL: DVLMTQTPLSLPVSLGDQASISCRSSQSIVHSNGNTYLEWYLQKPGQSPKLLIYKVSNRFSGVPDRFSGSGSGTDFTLKINRVEAEDLGVYYCFQGSHVPWTFGGGTKLEIK
notes: Used as hybridoma culture supernatant (ELISA, Western blot, IHC) or at 50 µg/mL (SPR); also called 7C10 X63; clone 7C10-C5
B2: 7C10-C5: α-carboxymethylation specific mouse monoclonal IgG1 antibody from single clone hybridoma 7C10-C5 (DSM ACC3350) (antibody)
heavy: MYRMQLLSCIALSLALVTNSDVQLQESGPGLVKPSQSLSLTCSVTGYSITSGYYWNWIRQFPGNKLEWMGYISYDGSNNYNPSLKNRISITRDTSKNQFFLKLNSVTTEDTATYYCAGRFAYWGQGTLVTVSAAKTTAPSVYPLAPVCGDTTGSSVTLGCLVKGYFPEPVTLTWNSGSLSSGVHTFPAVLQSDLYTLSSSVTVTSSTWPSQSITCNVAHPASSTKVDKKIEPRGPTIKPCPPCKCPAPNLLGGPSVFIFPPKIKDVLMISLSPIVTCVVVDVSEDDPDVQISWFVNNVEVHTAQTQTHREDYNSTLRVVSALPIQHQDWMSGKEFKCKVNNKDLPAPIERTISKPKGSVRAPQVYVLPPPEEEMTKKQVTLTCMVTDFMPEDIYVEWTNNGKTELNYKNTEPVLDSDGSYFMYSKLRVEKKNWVERNSYSCSVVHEGLHNHHTTKSFSRTPGK
light: MDMRVPAQLLGLLLLWLSGARCDVLMTQTPLSLPVSLGDQASISCRSSQSIVHSNGNTYLEWYLQKPGQSPKLLIYKVSNRFSGVPDRFSGSGSGTDFTLKINRVEAEDLGVYYCFQGSHVPWTFGGGTKLEIKADAAPTVSIFPPSSEQLTSGGASVVCFLNNFYPKDINVKWKIDGSERQNGVLNSWTDQDSKDSTYSMSSTLTLTKDEYERHNSYTCEATHKTSTSPIVKSFNRNEC
modifications: Amino acid sequence of the recombinant 7C10-C5 heavy chain; Amino acid sequence of the recombinant 7C10-C5 light chain

How the values were obtained:
[1] = target: T1, mouse HA PP4c, carboxymethylated (immunoprecipitated from NIH3T3 cells) (mouse) (UniProt P97470); test: Western blot quantification, signal normalized to HA level, HA-PP2A set to 1, N=3
T1 sequence (C-terminal leucine α-carboxyl methyl ester (cellular methylation), looked up): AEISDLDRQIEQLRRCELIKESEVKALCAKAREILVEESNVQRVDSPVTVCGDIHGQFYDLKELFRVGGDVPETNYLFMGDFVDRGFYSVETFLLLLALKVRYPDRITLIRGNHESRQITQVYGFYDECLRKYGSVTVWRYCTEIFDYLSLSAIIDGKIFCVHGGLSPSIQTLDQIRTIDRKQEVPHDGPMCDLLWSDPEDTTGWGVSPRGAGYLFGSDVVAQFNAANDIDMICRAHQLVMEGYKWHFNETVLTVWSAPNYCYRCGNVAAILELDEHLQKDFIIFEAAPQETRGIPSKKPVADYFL

[2] = target: PP2Ac C-terminal peptides (L309, meL309, amL309, pT304, pY307) (Homo sapiens, UniProt P67775); test: ELISA with PP2Ac C-terminal undecapeptides; type: binding
Method: 7C10-C5 was tested for its specificity to the unmodified, methylated or amidated carboxyl group of Leu^309 at the carboxy-terminus of PP2Ac by ELISA with 3 different undecapeptides (11-mers) (FIG. 4). Methylated and amidated peptides were compared because at physiological pH the α-carboxyl-group of Leu^309 is negatively charged and either the methylation or amidation of the α-carboxyl-group neutralizes its negative charge. This allowed the inventors to discriminate between a specificity for the amidated charge-neutralized PP2Ac C-terminus or the carboxymethylated charge-neutralized PP2Ac C-terminus.
Specifically, flat-bottom Nunc-Immuno Medisorp 96-well ELISA plates (Thermo; 467320) were coated o/n at 4° C. with 50 μl of either a peptide of the sequence ac-HVTRRTPDYFL-OH (L309; unmodified) (SEQ ID NO:18) at a concentration of 2 μg/ml, a peptide of the sequence ac-HVTRRTPDYFL-CH3 (meL309; methylated) (SEQ ID NO:18) at a concentration of 2 μg/ml in TBS (137 mM NaCl (AppliChem, #131659, 2.7 mM KCl (AppliChem, #131494), 24.8 mM Tris (AppliChem, #A1086), pH 7.4 with HCl) or a peptide of the sequence ac-HVTRRTPDYFL-NH2 (amL309; amidated) (SEQ ID NO:18) at a concentration of 2 μg/ml in TBS. Of note, the “ac-” in the peptides described here and in other Examples refers to an acetylated N-terminus. Said acetylation neutralizes the positive charge at the N-terminus, and the free charged N-terminus is thereby removed.
Then, the wells were washed once with TBS, blocked with 200 μl of 2% bovine serum albumin (BSA) (Sigma, A9647) in TBS for 1 hour at RT and washed again once with TBS. […] Bound antibodies were detected colorimetrically by addition of 50 μl of 33 μg/ml […] (TMB) (Sigma, T2885) in 0.1 M sodium acetate pH 6.0 and 0.01% H2O2 (Sigma, H1009). The colorimetric reaction was stopped after 10 min by addition of 50 μl 0.5 M H2SO4, and measured at 450 nm and 560 nm with a Perkin Elmer VICTOR® Nivo™ microplate reader. The results from 560 nm read were subtracted from the 450 nm read. […]

Molecule	7C10/HA blot signal relative to HA-PP2A = 1 [1]	effect of concurrent Tyr307 phosphorylation on binding to carboxymethylated PP2Ac C-terminus [2]	detection difference carboxymethylated+Thr304 phosphorylated versus carboxymethylated peptide ([2]; at lower peptide concentrations (dilution series 8 μg/ml to 7.8125 ng/ml)) [fold]	signal intensity α-carboxymethylated PP2Ac peptide when Thr304 is phosphorylated versus not phosphorylated ([2]; peptides at 2 μg/ml) [fold]
B1	0.01 7C10/HA			
B2		not significantly altered	4	1.6
